In patent US6723697B2, “IL-16 antagonists” (Research Corporation Technologies, Inc., priority 1999, dated 2004):
“Also recorded” adds a separate entry of the source.

Columns and labels:
Format in all cases: cell-based
[1] = molecular target: T1, rIL-16 (Mus musculus, UniProt O54824); assay: IL-2R (CD25) induction on rIL-16-stimulated murine splenocytes, flow cytometry
T1 construct: polyhistidine fusion protein containing the 119 C-terminal residues encoded by the previously reported murine cDNA; polyhistidine (cleaved yes); made in house; host or cells: Escherichia coli strain HMS 174, vector pET16b
T1 sequence (O54824 1204-1322): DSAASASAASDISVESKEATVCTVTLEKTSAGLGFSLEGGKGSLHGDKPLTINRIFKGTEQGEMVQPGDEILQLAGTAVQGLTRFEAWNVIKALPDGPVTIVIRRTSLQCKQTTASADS
Procedure: Induction of IL-2R (CD25) on rIL-16-stimulated murine splenocytes was detected by staining with FITC-conjugated anti-mouse IL-2R Ab (PharMingen). Cells were fixed with 10% formalin and stored at 4° C. in the dark before analysis with a Becton Dickinson FACScan 440 flow cytometer. The % IL-2R^+ cells was determined by subtracting the % isotype control positive from the total % positive events.
Peptides A (SEQ ID NO:15) and C (SEQ ID NO:19) were inhibitory at 10^−7 M, but not 10^−6 M. The negative control peptide D (SEQ ID NO:20) (10^−6 M) had no effect on rIL-16-stimulated IL-2R expression.
Murine splenocytes were incubated in control buffer, rIL-16 alone, or rIL-16 plus the indicated peptide. IL-2R expression was determined by flow cytometry using FITC-conjugated anti-IL-2R antibody. The % IL-2R^+ was determined by subtracting the FITC-conjugated isotype control antibody binding from the FITC-conjugated anti-IL-2R antibody binding. Isotype control antibody binding ranged from 1% to 4%.

[2] = molecular target: T2, murine rIL-16 (Mus musculus, UniProt O54824); assay: murine rIL-16-stimulated murine splenocyte migration, modified Boyden chamber; details: for IL-16-inhibitory activity (block of murine rIL-16-stimulated murine splenocyte migration): peptide concentration not given
T2 construct: polyhistidine fusion protein containing the 119 C-terminal residues encoded by the previously reported murine cDNA; polyhistidine (cleaved yes); made in house; host or cells: Escherichia coli strain HMS 174, vector pET16b
T2 sequence (O54824 1204-1322): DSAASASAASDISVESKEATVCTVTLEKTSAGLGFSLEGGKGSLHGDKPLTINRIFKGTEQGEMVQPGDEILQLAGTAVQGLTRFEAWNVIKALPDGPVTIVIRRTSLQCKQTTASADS
Procedure: (§1) Cell migration was assessed using a modified Boyden chamber. […] Cell migration is expressed as the mean % control migration.
(§2) Results from multiple experiments were analyzed using Student's t test for paired variables, and Tukey's test for multiple variables. A P value<0.05 was considered significant.
Peptide B (aa 341-352) includes the sequence WQCLLS (residues 344-349, SEQ ID NO:4) which is 100% conserved in all the species examined. Peptide A (aa 327-338) and peptide C (aa 351-362) correspond to the N-terminal and C-terminal flanks of peptide B, respectively. A random scrambled 12-residue peptide (LSKQKMVSREGT) designated peptide D (SEQ ID NO:20) was used a negative control for nonspecific effects of peptide administration on splenocyte motility. Criteria for the design of peptide D included overall hydrophilicity, neutral charge and no cysteine residues (to prevent possible dimer formation).
Murine spleens were harvested from healthy 8-week male BALB/c mice (Jackson Laboratory). Splenocytes were isolated by grinding spleens between fiysted slides in M199 culture medium (M. A. Bioproducts), supplemented with 0.4% bovine serum albumin, 22 mM HEPES buffer, 100 with U/ml of penicillin, 100 μg/ml streptomycin (M199-HPS). Cells were washed and erytbrocytes were lysed in Gey's solution. Splenocytes were washed twice in M199, and resuspended to a final concentration of 2×10^6 cells/ml in RPMI1640 medium (BioWhittaker) supplemented with 10% FBS, 100 U/ml of penicillin and 100 μg/ml of streptomycin. By flow cytometry, 25% of the isolated splenocytes within the lymphocyte-cloud were CD4^+.
Recombinant murine IL-16 was produced in Escherichia coli (strain HMS 174; Novagen) as a polyhistidine fusion protein containing the 119 C-terminal residues encoded by the previously reported murine cDNA (Keane et al., (1998) J. Immunol. 160: 5945-5954), using the bacterial expression vector pET16b (Novagen). The recombinant product corresponds to the secreted form of natural murine IL-16 following cleavage by caspase-3 (Zhang et al. (1998) J. Biol. Chem. 273:1144-1149). The rIL-16 was purified by metal chelation chromatography, and the polyhistidine tag was cleaved with factor Xa (New England Biolabs).

[3] = molecular target: T2, murine rIL-16; assay: IL-16-stimulated T-lymphocyte migration, human CD4 D4 point mutants; details: human CD4 D4 wild type or point mutant, rIL-16 10^-9 M
Procedure: Point mutations at Leu 348 and Leu 349 in human CD4 were prepared as follows.
Initially 100 ng of wild type human CD4 cDNA (Richard Axel, Columbia University, N.Y.) contained within the mammalian expression vector pcDNA3.1(−) (Invitrogen, Carlsbad, Calif.) was subjected to the polymerase chain reaction (PCR) in the presence of 125 ng of each set of primer pairs. PCR conditions were as follows:
The time for the elongation step varied according to the relationship of 2 minutes per kilobase of plasmid DNA length. The product was then subjected to restriction digestion with the enzyme Dpn for 1 h. at 37° C. Dpn is specific for methylated nucleotides and therefore will only cut the original wide type CD4-plasmid DNA. The transformation reaction required the addition of 1 μl of the digest to 50 μl of Epicurean Blue Eschericia coli which was incubated on ice for 30 min. and finally heat shocked 42° C., 45 sec to seal the supercompent bacteria. The resultant bacteria culture was selected on ampicillin plates and sequenced to confirm mutagenesis.
as §1, §2
(FIGS. 10A and 10B). […] (FIGS. 11A and 11B).

In the case of “LSKQKMVSREGT (OTHER INFORMATION: Description of Artificial Sequence:IL-16 antagonist peptide) [peptide D, random scrambled 12-residue peptide used as negative control, reference compound]”, the “% IL-2R+ CELLS” value ([1]; IL-16 + negative control peptide, 10^-6 M) is reported as 37% and the “inhibition of IL-16-stimulated induction of IL-2R” value ([1]; peptide 10^-6 M) is reported as “no effect”.

For “VAPETG (OTHER INFORMATION: Description of Artificial Sequence:IL-16 antagonist peptide) [aa 337-342, bridges peptide A and peptide B]”, the “IL-16-inhibitory activity (block of murine rIL-16-stimulated murine splenocyte migration)” value ([2]; rIL-16 10^-9 M) was “failure; also recorded: lacked inhibitory activity”.

With “VKQVVA (OTHER INFORMATION: Description of Artificial Sequence:IL-16 antagonist peptide) [aa 334 V:K substituted]” the “reduction of IL-16-stimulated splenocyte migration in combination with peptide B” value ([2]; peptide 10^-6 M plus peptide B fixed 0.5×10^-8 M) was “reduced IL-16-stimulated splenocyte migration” and the “reduction of IL-16-stimulated splenocyte migration in combination with peptide B” value ([2]; peptide 10^-7 M plus peptide B fixed 0.5×10^-8 M) was “reduced IL-16-stimulated splenocyte migration”.

“VSEEQK (OTHER INFORMATION: Description of Artificial Sequence:IL-16 antagonist peptide) [N-terminal half of peptide A]” was tested, and the “synergy when combined with peptide B” value ([2]; concentration not given, data not shown) was “no synergy” and the “IL-16-inhibitory activity (block of murine rIL-16-stimulated murine splenocyte migration)” value ([2]; rIL-16 10^-9 M) was “no inhibitory activity”.

In the case of “VVQKVA (OTHER INFORMATION: Description of Artificial Sequence:IL-16 antagonist peptide) [aa 336 V:K substituted]”, the “block of IL-16-stimulated splenocyte motility in combination with peptide B” value ([2]; peptide 0.5×10^-6 M to 0.5×10^-9 M (any concentration) plus peptide B fixed 0.5×10^-8 M) is reported as “did not block IL-16”.

For “VVQVVA (OTHER INFORMATION: Description of Artificial Sequence:IL-16 antagonist peptide) [aa 333-338 of mouse CD4 D4, C-terminal half of peptide A]”, the “synergistic activity with peptide B” value ([2]; 6-residue peptide 10^-8 M combined with peptide B, data not shown) was “synergistic activity” and the “inhibition of rIL-16-induced splenocyte migration” value ([2]; peptide 10^-6 M, rIL-16 10^-9 M) was “inhibited rIL16-induced splenocyte migration”.

“WACLLS (OTHER INFORMATION: Description of Artificial Sequence:IL-16 antagonist peptide) [aa 345 Q:A substituted]” was tested, and the “IL-16-inhibitory activity (block of murine rIL-16-stimulated murine splenocyte migration)” value ([2]; rIL-16 10^-9 M) was “failed to block IL-16”.

In the case of “WQALLS (OTHER INFORMATION: Description of Artificial Sequence:IL-16 antagonist peptide) [aa 346 C:A substituted]”, the “IL-16-inhibitory activity (block of murine rIL-16-stimulated murine splenocyte migration)” value ([2]; rIL-16 10^-9 M) is reported as “equally as effective as the native WQCLLS”.

With “WQCELS (OTHER INFORMATION: Description of Artificial Sequence:IL-16 antagonist peptide) [aa 347 L:E substituted]” the “IL-16-inhibitory activity (block of murine rIL-16-stimulated murine splenocyte migration)” value ([2]; rIL-16 10^-9 M) was “failed to block IL-16”.

For “WQCLLS (OTHER INFORMATION: Description of Artificial Sequence:IL-16 antagonist peptide) [aa 344-349 of mouse CD4 D4]”, the “inhibition of IL-16 (splenocyte migration)” value ([2]; peptide 10^-7 M, rIL-16 10^-9 M) was “inhibited IL-16”.

B1: rIL-16: recombinant murine IL-16, 119 C-terminal residues, produced in Escherichia coli (protein)
chain: DSAASASAASDISVESKEATVCTVTLEKTSAGLGFSLEGGKGSLHGDKPLTINRIFKGTEQGEMVQPGDEILQLAGTAVQGLTRFEAWNVIKALPDGPVTIVIRRTSLQCKQTTASADS
For B1, the “% IL-2R+ CELLS” value ([1]; rIL-16 10^-9 M alone, no stimulation 24) was 36% and the “increase of basal IL-2R expression” value ([1]; rIL-16 alone, murine splenocytes) was 50%.

B2: NLTCEVWGPTSPKLMLSLKLENKEAKVSKREKAVWVLNPEAGMWQCLLSDSGQVLLESNIKVLPTWSTPVQPM (peptide)
chain: NLTCEVWGPTSPKLMLSLKLENKEAKVSKREKAVWVLNPEAGMWQCLLSDSGQVLLESNIKVLPTWSTPVQPM
modifications: OTHER INFORMATION: Description of Artificial Sequence:IL-16 antagonist peptide
notes: aa 302-374 of human CD4 D4
In the case of B2, the “inhibition of IL-16-stimulated T-lymphocyte migration” value [3] is reported as “IL-16-inhibitory activity”.

B3: NLTCEVWGPTSPKLMLSLKLENKEAKVSKREKAVWVLNPEAGMWQCLSSDSGQVLLESNIKVLPTWSTPVQPM (peptide)
chain: NLTCEVWGPTSPKLMLSLKLENKEAKVSKREKAVWVLNPEAGMWQCLSSDSGQVLLESNIKVLPTWSTPVQPM
modifications: OTHER INFORMATION: Description of Artificial Sequence:IL-16 antagonist peptide
notes: human CD4 D4 with leucine 349 to serine
B3 was tested, and the “inhibition of IL-16-stimulated T-lymphocyte migration” value [3] was “lost the ability to inhibit” and the “inhibition of IL-16-stimulated T-lymphocyte migration” value ([3]; listed as human CD4 (L349→S)) was “complete loss in inhibition”.

B4: NLTCEVWGPTSPKLMLSLKLENKEAKVSKREKAVWVLNPEAGMWQCSLSDSGQVLLESNIKVLPTWSTPVQPM (peptide)
chain: NLTCEVWGPTSPKLMLSLKLENKEAKVSKREKAVWVLNPEAGMWQCSLSDSGQVLLESNIKVLPTWSTPVQPM
modifications: OTHER INFORMATION: Description of Artificial Sequence:IL-16 antagonist peptide
notes: human CD4 D4 with leucine 348 to serine
B4 was tested, and the “inhibition of IL-16-stimulated T-lymphocyte migration” value [3] was “lost the ability to inhibit” and the “inhibition of IL-16-stimulated T-lymphocyte migration” value ([3]; listed as human CD4 (L348→S)) was “complete loss in inhibition”.

B5: … (peptide)
chain: NLTCEVWGPTSPKLMLSLKLENKEAKVSKREKAVWVLNPEAGMWQCILSDSGQVLLESNIKVLPTWSTPVQPM
modifications: OTHER INFORMATION: Description of Artificial Sequence:IL-16 antagonist peptide
notes: human CD4 D4 with Isoleucine substituted at position 348
B5 was tested, and the “inhibition of IL-16-stimulated T-lymphocyte migration” value [3] was “maintained partial ability to inhibit” and the “inhibition of IL-16-stimulated T-lymphocyte migration” value ([3]; listed as Leucine 348 was conservatively substituted with Isoleucine) was “Partial inhibition”.
